The source of these data is patent US20040253673A1.

Assay [1] concerns the target Crotalus durissus terrificus (C.d.t.) venom. As to the kind of experiment: ELISA, C.d.t. venom coat, 1:5.
Assay [2] shares this target. Put plainly: ELISA, C.d.t. venom coat, 1:25.
Assay [3] shares this target. Put plainly: ELISA, C.d.t. venom coat, 1:25. The source holds these as a separate data set.
The target is the same in assay [4]. Put plainly: ELISA, C.d.t. venom coat, 1:125.
Assay [5] has the same target. Put plainly: ELISA, C.d.t. venom coat, 1:625.
Assay [6] shares this target. Put plainly: ELISA, C.d.t. venom coat, 1:125. This is another data set of the same source.
The target is the same in assay [7]. As to the kind of experiment: ELISA, C.d.t. venom coat, 1:625. The source holds these as a separate data set.
Assay [8] has the same target. As to the kind of experiment: ELISA, C.d.t. venom coat, 1:3125.
For assay [9] the target is unchanged. Put plainly: ELISA, C.d.t. venom coat, 1:3125. This is another data set of the same source.
Assay [10] has the same target. As to the kind of experiment: ELISA, C.d.t. venom coat, 1:62,500.
Assay [11] has the same target. Put plainly: ELISA, C.d.t. venom coat, 1:312,500.
For assay [12] the target is unchanged. As to the kind of experiment: ELISA, C.d.t. venom coat, undiluted.

On to preimmune IgY (antibody), for which the ELISA absorbance in assay [1] is below 0 OD; in assay [2], 0.016 OD; in assay [3], 0 OD; in assay [4], below 0 OD; in assay [5] it was below 0 OD; in assay [6], 0.003 OD. Also, the ELISA absorbance in assay [7] was 0 OD; in assay [8], below 0 OD; in assay [9] it was 0.002 OD; in assay [10], 0.001 OD; in assay [11], 0.01 OD; in [12], 0.003 OD.
